Data taken from US20240116985A1, “STAPLED PEPTIDES AND METHODS THEREOF” (priority 2020, published 2024).
Each block holds one binder with its values, some of them ahead of it. Starred links: 1 amine or outer side, 2 acyl side, 3 side chain; linkers in the order of their positions; H or OH if unused. Positions of bridges follow the written chain, without caps; N, C: chain ends. Non-standard residues stand in square brackets, D forms with d. Primed or numbered codes have the meaning given here. No end group written: not given here. *: point of attachment. PyrS2″ = (S)-3-amino-1-((pent-4-en-1-yloxy)carbonyl)pyrrolidine-3-carboxylic acid (stapling residue), C=CCCCOC(=O)N1CC[C@@](N[*:1])(C(=O)[*:2])C1; B5(4) = 2,2-bis(4-pentenyl)glycine = 2-amino-2-(pent-4-en-1-yl)hept-6-enoic acid (stitching residue), C=CCCCC(CCCC=C)(N[*:1])C(=O)[*:2]; B5(5) = 2,2-bis(4-pentenyl)glycine, 2-amino-2-(pent-4-en-1-yl)hept-6-enoic acid (stitching residue), C=CCCCC(CCCC=C)(N[*:1])C(=O)[*:2]; PyrS2 = (S)-3-amino-1-((pent-4-en-1-yloxy)carbonyl)pyrrolidine-3-carboxylic acid, C=CCCCOC(=O)N1CC[C@@](N[*:1])(C(=O)[*:2])C1; SPip2 = 4-amino-1-((pent-4-en-1-yloxy)carbonyl)piperidine-4-carboxylic acid, C=CCCCOC(=O)N1CCC(N[*:1])(C(=O)[*:2])CC1; SPip3 = 4-amino-1-((hex-5-en-1-yloxy)carbonyl)piperidine-4-carboxylic acid, C=CCCCCOC(=O)N1CCC(N[*:1])(C(=O)[*:2])CC1; SPip1 = 4-amino-1-((but-3-en-1-yloxy)carbonyl)piperidine-4-carboxylic acid, C=CCCOC(=O)N1CCC(N[*:1])(C(=O)[*:2])CC1; B5(25) = 2-amino-2-(pent-4-en-1-yl)hept-6-enoic acid (stitching residue), C=CCCCC(CCCC=C)(N[*:1])C(=O)[*:2]; B5(3) = 2,2-bis(4-pentenyl)glycine (stitching residue), C=CCCCC(CCCC=C)(N[*:1])C(=O)[*:2]; B5 = 2-amino-2-(pent-4-en-1-yl)hept-6-enoic acid, C=CCCCC(CCCC=C)(N[*:1])C(=O)[*:2]; NdiMeButC = N-terminal 4-(dimethylamino)butanoyl, CN(C)CCCC(=O)*; Phe(3-CF3) = N[C@@H](Cc1cccc(C(F)(F)F)c1)C(=O)O; Phe(4-CF3) = N[C@@H](Cc1ccc(C(F)(F)F)cc1)C(=O)O; Phe(3-COOH) = N[C@@H](Cc1cccc(C(=O)O)c1)C(=O)O; Phe(2-CF3) = N[C@@H](Cc1ccccc1C(F)(F)F)C(=O)O; Phe(2-Cl) = N[C@@H](Cc1ccccc1Cl)C(=O)O; Phe(2-F) = N[C@@H](Cc1ccccc1F)C(=O)O; Bta = N[C@@H](Cc1csc2ccccc12)C(=O)O; αAllylPro = C=CC[C@@]1(C(=O)O)CCCN1; hPhe = N[C@@H](CCc1ccccc1)C(=O)O; tBuAla = CC(C)(C)C[C@H](N)C(=O)O; 3Thi = N[C@@H](Cc1ccsc1)C(=O)O; R5 = C=CCCC[C@@](C)(N)C(=O)O; Octanoyl = CCCCCCCC(=O)*

Key:
[1] = target: full-length beta-Catenin (Uniprot ID P35222) (Homo sapiens (Human)) (UniProt P35222); experiment: fluorescence polarization competition; full-length beta-catenin with 5FAM-TCF4(10-53) probe as competitor
Target sequence in this assay (P35222 2-781 limits assumed): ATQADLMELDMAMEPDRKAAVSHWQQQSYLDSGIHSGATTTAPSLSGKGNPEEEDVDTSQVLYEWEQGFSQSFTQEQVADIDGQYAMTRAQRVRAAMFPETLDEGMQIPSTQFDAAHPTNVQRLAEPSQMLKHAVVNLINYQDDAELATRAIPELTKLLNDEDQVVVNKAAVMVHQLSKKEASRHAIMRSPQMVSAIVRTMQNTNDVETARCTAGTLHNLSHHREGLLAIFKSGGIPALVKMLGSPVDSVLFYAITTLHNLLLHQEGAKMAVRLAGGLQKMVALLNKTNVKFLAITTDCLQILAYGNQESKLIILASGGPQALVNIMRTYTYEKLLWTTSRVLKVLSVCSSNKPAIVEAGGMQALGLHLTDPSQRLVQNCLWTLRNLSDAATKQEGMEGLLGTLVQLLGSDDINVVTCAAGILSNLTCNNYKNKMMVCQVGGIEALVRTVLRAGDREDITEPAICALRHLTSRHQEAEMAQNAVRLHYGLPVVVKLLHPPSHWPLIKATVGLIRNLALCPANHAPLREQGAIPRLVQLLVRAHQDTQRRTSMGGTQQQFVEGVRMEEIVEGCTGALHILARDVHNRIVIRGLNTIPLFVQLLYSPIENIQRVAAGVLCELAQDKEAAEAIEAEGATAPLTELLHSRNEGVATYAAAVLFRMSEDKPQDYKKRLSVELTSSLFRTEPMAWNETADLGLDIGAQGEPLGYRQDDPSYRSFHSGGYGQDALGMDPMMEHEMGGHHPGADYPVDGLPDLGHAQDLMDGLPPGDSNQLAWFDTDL

[2] = target: full-length beta-Catenin (Uniprot ID P35222) (Homo sapiens (Human)) (UniProt P35222); experiment: FP competition; full-length beta-catenin, competitor 5FAM-TCF4(10-53)
Target sequence in this assay (P35222 whole entry, one chain of several): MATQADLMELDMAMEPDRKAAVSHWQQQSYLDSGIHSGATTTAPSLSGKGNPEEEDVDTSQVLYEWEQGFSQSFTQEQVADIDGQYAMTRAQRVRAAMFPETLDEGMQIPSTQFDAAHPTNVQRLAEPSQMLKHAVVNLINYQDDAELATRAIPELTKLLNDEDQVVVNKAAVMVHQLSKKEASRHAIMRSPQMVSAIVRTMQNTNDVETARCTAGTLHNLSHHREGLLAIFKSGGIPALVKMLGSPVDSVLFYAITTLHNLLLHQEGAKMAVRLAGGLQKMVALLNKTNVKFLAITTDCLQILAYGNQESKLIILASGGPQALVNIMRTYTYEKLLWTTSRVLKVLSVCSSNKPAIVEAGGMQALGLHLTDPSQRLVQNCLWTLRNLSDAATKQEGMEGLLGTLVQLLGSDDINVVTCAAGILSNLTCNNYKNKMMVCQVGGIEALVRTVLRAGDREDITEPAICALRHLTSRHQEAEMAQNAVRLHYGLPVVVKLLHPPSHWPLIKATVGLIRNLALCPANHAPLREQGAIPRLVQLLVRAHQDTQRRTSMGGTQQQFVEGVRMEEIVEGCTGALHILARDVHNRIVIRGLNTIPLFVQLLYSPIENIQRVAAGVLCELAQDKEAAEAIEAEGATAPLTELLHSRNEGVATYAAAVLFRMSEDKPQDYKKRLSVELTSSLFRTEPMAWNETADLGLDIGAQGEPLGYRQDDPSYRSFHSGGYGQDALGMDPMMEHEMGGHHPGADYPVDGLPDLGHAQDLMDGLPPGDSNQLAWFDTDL

[3] = target: full-length beta-Catenin (Uniprot ID P35222) (Homo sapiens (Human)) (UniProt P35222); experiment: fluorescence polarization competition; full-length beta-catenin with 5FAM-TCF4(10-53) probe, peptide titrated
Target sequence in this assay (P35222 whole entry, one chain of several): as above

[4] = target: full-length beta-Catenin (Uniprot ID P35222) (Homo sapiens (Human)) (UniProt P35222); experiment: fluorescence polarization competition; full-length beta-catenin, competitor 5FAM-TCF4(10-53) probe
Target sequence in this assay (P35222 whole entry, one chain of several): as above

[5] = target: full-length beta-Catenin (Uniprot ID P35222) (Homo sapiens (Human)) (UniProt P35222); experiment: fluorescence polarization competition; full-length beta-catenin, 5FAM-TCF4 10-53 probe as competitor
Target sequence in this assay (P35222 whole entry, one chain of several): as above

[6] = target: Bcat-Halo (UniProt P35222); experiment: NanoBRET absolute IC50 in HEK293 cells; Bcat-Halo, competitor TCF4-Luc
[7] = target: full-length beta-Catenin (Uniprot ID P35222) (Homo sapiens (Human)) (UniProt P35222); experiment: fluorescence polarization competition; 10 nM full-length beta-catenin + 10 nM 5FAM-TCF4 10-53 as competitor probe
Target sequence in this assay (P35222 2-781 limits assumed): as the sequence (P35222 2-781 limits assumed) above

[8] = target: full-length beta-Catenin (Uniprot ID P35222) (Homo sapiens (Human)) (UniProt P35222); experiment: fluorescence polarization competition; full-length beta-catenin, competitor 5FAM-TCF4 10-53
Target sequence in this assay (P35222 whole entry, one chain of several): as the sequence (P35222 whole entry, one chain of several) above

[9] = target: full-length beta-Catenin (Uniprot ID P35222) (Homo sapiens (Human)) (UniProt P35222); experiment: fluorescence polarization competition; displaces 5FAM-TCF4(10-53) from full-length beta-catenin
Target sequence in this assay (P35222 2-781 limits assumed): as the sequence (P35222 2-781 limits assumed) above

[10] = target: beta-catenin (Homo sapiens (Human)) (UniProt P35222); experiment: fluorescence polarization competition; full-length beta-catenin with 5FAM-TCF4(10-53) probe as competitor
[11] = target: Bcat-Halo (UniProt P35222); experiment: NanoBRET Abs IC50, Bcat-Halo/TCF4-Luc in HEK293 cells

Bcat-Halo, sequence (P35222 whole entry): as the sequence (P35222 whole entry, one chain of several) above
beta-catenin (Homo sapiens (Human)), sequence (P35222 whole entry): as the sequence (P35222 whole entry, one chain of several) above

- IC50 [3]: 414 nM
- EC50 [4]: 414 nM
B1: I-1064 (peptide)
peptide: Ac-[αAllylPro]D[tBuAla][B5(3)]DDAAFL[PyrS2][Phe(2-Cl)][Bta]S-NH2
modifications: staple 1-4, 4-11; not fully specified; printed as Ac-PL3-Asp-Npg-B5-Asp-Asp-Ala-Ala-Phe-Leu-PyrS2-2C1F-BztA-Ser-NH2

- IC50 [5]: 452 nM
B2: I-2585 (peptide)
peptide: Ac-[αAllylPro]D[tBuAla][B5]D[Phe(3-COOH)]QAFL[SPip2][Phe(2-CF3)][Bta]A-NH2
modifications: staple 1-4, 4-11; not fully specified; printed as Ac-PL3-Asp-Npg-B5-Asp-3COOHF-Gln-Ala-Phe-Leu-SPip2-2F3MeF-BztA-Ala-NH2; also: earlier-eluting staple isomer composition

- IC50 [6]: 8600 nM
- EC50 [7]: 10 nM
- IC50 [8]: 10 nM
Binder: Ac-[αAllylPro]D[tBuAla][B5(5)]DDAAFT[PyrS2″][Phe(2-Cl)][Bta][dT]-NH2 (staple 1-4, 4-11) [I-1033]

- EC50 [9]: 33 nM
- IC50 [6]: 13700 nM
- IC50 [8]: 33 nM
Binder: Ac-[αAllylPro]D[tBuAla][B5(5)]DNAAFT[PyrS2″][Phe(2-F)][Bta]Q-NH2 (staple 1-4, 4-11) [I-1022]

- IC50 [1]: 258 nM
- EC50 [2]: 258 nM
Binder: [αAllylPro]D[tBuAla][B5(4)]DDAAFF[PyrS2″][hPhe][Bta]Q-NH2 (staple 1-4, 4-11) [I-1351]

- IC50 [6]: 16600 nM
- EC50 [7]: 29 nM
- IC50 [8]: 29 nM
Binder: Ac-[αAllylPro]D[tBuAla][B5(5)]DEAAFS[PyrS2″][Phe(2-Cl)][Bta][dT]-NH2 (staple 1-4, 4-11) [I-1036]

- IC50 [3]: 520 nM
- EC50 [4]: 520 nM
B4: I-1065 (peptide)
peptide: Ac-[αAllylPro]D[tBuAla][B5(3)]DDAAFL[PyrS2″][Phe(2-Cl)][Bta]S-NH2
modifications: staple 1-4, 4-11; not fully specified; printed as Ac-PL3-Asp-Npg-B5-Asp-Asp-Ala-Ala-Phe-Leu-PyrS2-2C1F-BztA-Ser-NH2

- IC50 [1]: 9 nM
- EC50 [2]: 9 nM
Binder: Ac-[αAllylPro]D[tBuAla][B5(4)]DDAAF[Phe(3-CF3)][PyrS2][3Thi][Bta]Q-NH2 (staple 1-4, 4-11) [I-1364]

- IC50 [3]: 950 nM
- EC50 [4]: 950 nM
B5: I-1068 (peptide)
peptide: Ac-[αAllylPro]D[tBuAla][B5(3)]DDAAFL[PyrS2″][Phe(2-Cl)][Bta]T-NH2
modifications: staple 1-4, 4-11; not fully specified; printed as Ac-PL3-Asp-Npg-B5-Asp-Asp-Ala-Ala-Phe-Leu-PyrS2-2C1F-BztA-Thr-NH2

- IC50 [5]: 602 nM
B6: I-2591 (peptide)
peptide: Ac-[αAllylPro]D[tBuAla][B5]D[Phe(3-COOH)]QAFL[SPip1][3Thi][Bta]A-NH2
modifications: staple 1-4, 4-11; not fully specified; printed as Ac-PL3-Asp-Npg-B5-Asp-3COOHF-Gln-Ala-Phe-Leu-SPip1-3Thi-BztA-Ala-NH2

- EC50 [9]: 5 nM
- IC50 [6]: 11500 nM
- IC50 [11]: 11500 nM
- IC50 [8]: 5 nM
Binder: Ac-[αAllylPro]D[tBuAla][B5(5)]DDAAFT[PyrS2″][Phe(2-F)][Bta]Q-NH2 (staple 1-4, 4-11) [I-1021]

- IC50 [6]: 7100 nM
- EC50 [10]: 7 nM
- IC50 [4]: 7 nM
Binder: Ac-[αAllylPro]D[tBuAla][B5(5)]DEAAFL[PyrS2″][3Thi][Bta]Q-NH2 (staple 1-4, 4-11) [I-1437]

- IC50 [6]: 20700 nM
- EC50 [10]: 26 nM
- IC50 [4]: 26 nM
Binder: Ac-[αAllylPro]D[tBuAla][B5(4)]DQAAFL[PyrS2″][3Thi][Bta]Q-NH2 (staple 1-4, 4-11) [I-1440]

The remaining lines, values behind:

Binder: NdiMeButC-[αAllylPro]D[tBuAla][B5(4)]DDAAFS[PyrS2″]F[Bta]S-NH2 (staple 1-4, 4-11) [I-1354]
- IC50 [1]: 48 nM
- EC50 [2]: 48 nM

Binder: Ac-[αAllylPro]D[tBuAla][B5(3)]DEAAFL[PyrS2″][Phe(2-Cl)][Bta]S-NH2 (staple 1-4, 4-11; not fully specified; printed as Ac-PL3-Asp-Npg-B5-Asp-Glu-Ala-Ala-Phe-Leu-PyrS2-2C1F-BztA-Ser-NH2) [I-1067]
- IC50 [3]: 517 nM
- EC50 [4]: 517 nM

B3: I-2584 (peptide)
peptide: Ac-[αAllylPro]D[tBuAla][B5]D[Phe(3-COOH)]QAFL[SPip1][Phe(2-CF3)][Bta]A-NH2
modifications: staple 1-4, 4-11; not fully specified; printed as Ac-PL3-Asp-Npg-B5-Asp-3COOHF-Gln-Ala-Phe-Leu-SPip1-2F3MeF-BztA-Ala-NH2
- IC50 [5]: 1840 nM

Binder: Ac-[αAllylPro]D[tBuAla][B5(4)]DSAAFL[PyrS2″][3Thi][Bta]Q-NH2 (staple 1-4, 4-11) [I-1443]
- IC50 [6]: 9500 nM
- EC50 [10]: 24 nM
- IC50 [4]: 24 nM

Binder: Octanoyl-[αAllylPro]D[tBuAla][B5(4)]DDAAFS[PyrS2″]F[Bta]S-NH2 (staple 1-4, 4-11) [I-1355]
- IC50 [1]: 213 nM
- EC50 [2]: 213 nM

Binder: Ac-[αAllylPro]D[tBuAla][B5(3)]DEAAFL[PyrS2][Phe(2-Cl)][Bta]Q-NH2 (staple 1-4, 4-11) [I-1063]
- IC50 [3]: 471 nM
- EC50 [4]: 471 nM

Binder: Ac-[αAllylPro]D[tBuAla][B5(5)]DDAAFS[PyrS2″][Phe(2-Cl)][Bta][dT]-NH2 (staple 1-4, 4-11) [I-1032]
- IC50 [6]: 10400 nM
- EC50 [7]: 15 nM
- IC50 [8]: 15 nM

Binder: Ac-[αAllylPro]D[tBuAla][B5(5)]DEAAFT[PyrS2″][Phe(2-Cl)][Bta][dT]-NH2 (staple 1-4, 4-11) [I-1037]
- IC50 [6]: 4400 nM
- EC50 [7]: 30 nM
- IC50 [8]: 30 nM

B7: I-1066 (peptide)
peptide: Ac-[αAllylPro]D[tBuAla][B5(3)]DEAAFL[PyrS2″][Phe(2-Cl)][Bta]S-NH2
modifications: staple 1-4, 4-11; not fully specified; printed as Ac-PL3-Asp-Npg-B5-Asp-Glu-Ala-Ala-Phe-Leu-PyrS2-2C1F-BztA-Ser-NH2
- IC50 [3]: 789 nM
- EC50 [4]: 789 nM

B8: I-2587 (peptide)
peptide: Ac-[αAllylPro]D[tBuAla][B5]D[Phe(3-COOH)]QAFL[SPip3][Phe(2-CF3)][Bta]A-NH2
modifications: staple 1-4, 4-11; not fully specified; printed as Ac-PL3-Asp-Npg-B5-Asp-3COOHF-Gln-Ala-Phe-Leu-SPip3-2F3MeF-BztA-Ala-NH2
- IC50 [5]: 273 nM

B9: I-2575 (peptide)
peptide: Ac-P[R5]ED[tBuAla][B5(25)]D[Phe(3-COOH)]AAFL[PyrS2″][Phe(2-CF3)][Bta]Q-NH2
modifications: staple 6-13, 2-6 (inferred); not fully specified; printed as Ac-Pro-R5-Glu-Asp-Npg-B5-Asp-3COOHF-Ala-Ala-Phe-Leu-PyrS2-2F3MeF-BztA-Gln-NH2
- IC50 [5]: 8160 nM

Binder: Ac-[αAllylPro]D[tBuAla][B5(4)]DDAAF[Phe(4-CF3)][PyrS2][3Thi][Bta]Q-NH2 (staple 1-4, 4-11) [I-1365]
- IC50 [1]: 9 nM
- EC50 [2]: 9 nM

B10: I-2586 (peptide)
peptide: Ac-[αAllylPro]D[tBuAla][B5]D[Phe(3-COOH)]QAFL[SPip2][Phe(2-CF3)][Bta]A-NH2
modifications: staple 1-4, 4-11; not fully specified; printed as Ac-PL3-Asp-Npg-B5-Asp-3COOHF-Gln-Ala-Phe-Leu-SPip2-2F3MeF-BztA-Ala-NH2; also: later-eluting staple isomer composition
- IC50 [5]: 345 nM
